Earlier results, collected in PMC2582146 (Biochemistry, 2008).

Target: N1P1 domain
Settings: read-out: affinity

B1: C-terminal 70 residues of CFTR: C-terminal 70 residues of CFTR, literature construct (ref 41) (protein, UniProt P13569 1411-1480, looked up, fragment)
chain: QQFLVIEENKVRQYDSIQKLLNERSLFRQAISPSDRVKLFPHRNSSKCKSKPQIAALKEETEEEVQDTRL
In the case of B1, the Kd is listed as 0.298 µM.
